B1: HB27 (humanized monoclonal antibody, IgG) (antibody, V domains shown)
VH: VKLVESGGGLVKPGGSLRLSCAASGFTFTNYGMSWVRQAPGKRLEWVAEISSGGSYTYYPDTVTGRFTISRDNAKNTLYLQMNSLRAEDTAVYYCARFRYGGGGTVDYWGQGTLVTVSS
VL: IVLTQSPTLSLSPGERATLSCRASESVDNYGISFMNWFQQKPGQAPRLLIYAASNQGSGIPSRFSGSGSGTDFSLTISSLEPEDFAVYFCQQSKEVPRIFGQGTKVEIL
notes: also called HB27 IgG; source: CHO cell line
B2: HB27 Fab fragment (Fab, V domains shown)
VH: VKLVESGGGLVKPGGSLRLSCAASGFTFTNYGMSWVRQAPGKRLEWVAEISSGGSYTYYPDTVTGRFTISRDNAKNTLYLQMNSLRAEDTAVYYCARFRYGGGGTVDYWGQGTLVTVSS
VL: IVLTQSPTLSLSPGERATLSCRASESVDNYGISFMNWFQQKPGQAPRLLIYAASNQGSGIPSRFSGSGSGTDFSLTISSLEPEDFAVYFCQQSKEVPRIFGQGTKVEIL

Legend:
Settings in all cases: both partners purified
[1] = target: T1, SARS-CoV-2 RBD (recombinant receptor binding domain of the S glycoprotein) (SARS-CoV-2, UniProt P0DTC2); assay: cell-based immunofluorescent blocking assay
[2] = target: T1, SARS-CoV-2 RBD (recombinant receptor …); assay: ELISA
[3] = target: T1, SARS-CoV-2 RBD (recombinant receptor …); assay: BLI

Binder	EC50 [1] [nM]	EC50 [2] [nM]	Kd [3] [nM]
B1	5 to 50	0.5	0.07
B2	–	–	0.27

Source: paper PMC7798916 (National Science Review, 2020)
